Reference: paper PMC3954636

Molecular target: hemagglutinin (HA) of human H7N9 influenza A virus A/Shanghai/2/2013 (influenza A virus A/Shanghai/2/2013 (H7N9))
Assay: crystal structure

hemagglutinin (HA) of human H7N9 influenza A virus A/Shanghai/2/2013 (natural protein)
stoichiometry N: 3
